This test deals with 20S proteasome (h20S). The test can be described thus: Microscale thermophoresis (MST) protein-proteasome interaction. The test is classed as binding, human. The following applies: NT-647-labeled protein titrated with h20S 0.06-1965 nM; 22 °C; 20 mM Tris-HCl pH 7.2; three independent experiments; read-out: EC50 of binding to 20S proteasome (MST, Hill fit). As to the method:
Enolase, α-synuclein and their oxidized forms were labeled using Monolith Protein Labeling Kit RED-NHS 2nd Generation Amine Reactive, NT-647 (Nanotemper, München, Germany), according to the manufacturer instructions. The labeling process was carried out in 50 mM HEPES buffer, pH 7.4, in the protein:NT-647 1:2 ratio. The incubation time was 60 min for enolase and 30 min for α-synuclein, at 21 °C. After labeling, the excess of the fluorescent reagent was removed using the columns provided by the manufacturer and 20 mM Tris-HCl buffer, pH 7.2, containing 200 mM NaCl and 10% glycerol. The obtained labeled proteins were concentrated on Amicon 3K spin-columns (Merck, Darmstadt, Germany). Protein concentrations were determined by measuring absorbance at 280 nm, using UV/Vis spectrophotometer (DU®730 Beckman Coulter).
Direct interactions between the fluorescently labeled, native and oxidized, proteins and the 20S proteasome were examined using microscale thermophoresis (NanoTemper Monolith NT.115). The labeled protein concentration was kept constant at 250 nM for native and oxidized α-synuclein and 125 nM and 25 nM for native and oxidized enolase, respectively. […] The EC50 values were calculated based on results obtained in three independent experiments.
For orientation: In MST a laser heats a spot of the sample, and binding alters the fluorescence response.

B1: oxidized enolase: human enolase 2 incubated with 0.5% H2O2 for 2 h at 30 °C (protein, UniProt P09104 2-434, looked up)
Gamma-enolase: SIEKIWAREILDSRGNPTVEVDLYTAKGLFRAAVPSGASTGIYEALELRDGDKQRYLGKGVLKAVDHINSTIAPALISSGLSVVEQEKLDNLMLELDGTENKSKFGANAILGVSLAVCKAGAAERELPLYRHIAQLAGNSDLILPVPAFNVINGGSHAGNKLAMQEFMILPVGAESFRDAMRLGAEVYHTLKGVIKDKYGKDATNVGDEGGFAPNILENSEALELVKEAIDKAGYTEKIVIGMDVAASEFYRDGKYDLDFKSPTDPSRYITGDQLGALYQDFVRDYPVVSIEDPFDQDDWAAWSKFTANVGIQIVGDDLTVTNPKRIERAVEEKACNCLLLKVNQIGSVTEAIQACKLAQENGWGVMVSHRSGETEDTFIADLVVGLCTGQIKTGAPCRSERLAKYNQLMRIEEELGDEARFAGHNFRNPSVL
modifications: H2O2-oxidized
notes: human enolase 2 incubated with 0.5% H2O2 for 2 h at 30 °C
B1: the EC50 (in general, the midpoint of the concentration-response curve) worked out at 87.8 ± 12.9 nM.

The values are drawn from PMC9221443, “Peptidomimetics Based on C-Terminus of Blm10 Stimulate Human 20S Proteasome Activity and Promote Degradation of Proteins” (Biomolecules, 2022).
